Test results reported in the supplement of paper PMC10567573.
± gives the standard deviation.

Experiment: protein stability index of a GFP-peptide fusion (GPS, HEK-293T) (PSI 1-6); higher = more stable
Conditions: c terminus: a fixed tail appended
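Also: 24-mer peptide tiles fused after GFP, lentivirally expressed, FACS-sorted into six equal bins by GFP/DsRed ratio, decoded by Illumina sequencing, PSI is the read-weighted mean bin number.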

Row | Sequence | protein stability index (treatment: DMSO) | protein stability index (treatment: MLN4924 1 uM, 8 h)
1 | AAAGEQASGAEAEPGPAGPPPPPS [BTBD1] | 5.446 ± 0.021 | 5.52 ± 0.19
2 | AAAYTFLQRNPKHELTAKYLNYYQ [P3H4] | 2.25 ± 0.23 | 2 ± 0.33
3 | AAGGDGELGSPLRRSISSSRSENV [PSD2] | 5.07 ± 0.11 | 5.1 ± 0.19
4 | AAGTHDGSVYFWATPRQVPSLQHL [WSB1] | 2.52 ± 0.22 | 2.64 ± 0.21
5 | AAIDNGLAFPLKHPDSWRAYPFYW [PI4K2A] | 2.27 ± 0.18 | 2.26 ± 0.2
6 | AAIFKIYLSCLEELMKCQIIYPRQ [TRIP13] | 3.08 ± 0.43 | 3.21 ± 0.17
7 | AAKPAASITSKPATLTTTSATSKL [ZNF207] | 4.6 ± 0.12 | 4.6 ± 0.17
8 | AAPFPSPAPASPAISVVGVSAGGH [TFE3] | 4.24 ± 0.35 | 4.16 ± 0.38
9 | AARAAGRDVAAEAVARSPKRPAWG [POMT2] | 4.1 ± 0.29 | 4.29 ± 0.51
10 | ACRFTKCLRVGMLKEGVRLDRVRG [ESRRA] | 2.31 ± 0.17 | 2.25 ± 0.19
11 | ACTMDQARGLDDAAARGGQCPGLG [ZBED3] | 4.54 ± 0.18 | 4.51 ± 0.14
12 | ADKCVCGPSAPPAPTPPSLSQRVM [TIAF1] | 4.15 ± 0.24 | 4.42 ± 0.35
13 | ADLSQKSPELQEEFGYNAETQKLL [ARFIP2] | 4.95 ± 0.37 | 5.14 ± 0.17
14 | ADTGRIHRFVEKPQVFVSNKINAG [GMPPB] | 3.46 ± 0.32 | 3.84 ± 0.18
15 | ADTNSDRLFTVNDVKVGGSKYGII [DCAF4] | 3.01 ± 0.21 | 3.02 ± 0.28
16 | AGEREDLWAGSKGKEFGYFPRDAV [MIA2] | 3.47 ± 0.15 | 3.86 ± 0.51
17 | AGGIRESKESSKEKKLTVRQDLED [C22orf31] | 5.56 ± 0.12 | 5.48 ± 0.3
18 | AGKWRSYKGELFDKTPVLLTDYPV [MYORG] | 2.32 ± 0.21 | 2.43 ± 0.25
19 | AGLVHVKQCIVAHPVNPPYYIPLV [CRYL1] | 2.46 ± 0.33 | 2.36 ± 0.54
20 | AGPGAPEPLAEGAAAEFSSLLRRI [SLC35F2] | 3.9 ± 0.32 | 3.77 ± 0.46
21 | AHSNEILIFSVQPKSLVRLSLEAV [KLHDC2] | 3.01 ± 0.48 | 2.6 ± 0.12
22 | AIAMYFLPPSPRFLVMKGQEGAAS [SLC2A12] | 2.17 ± 0.53 | 1.97 ± 0.31
23 | AIELQGHNDRVQALSYAQHTRQLI [WDFY2] | 3.1 ± 0.36 | 3.15 ± 0.41

Row | Sequence | protein stability index (treatment: DMSO) | protein stability index (treatment: MLN4924 1 uM, 8 h)
24 | AIGRVRVLEEQLVKAKEQIENYKK [FUT8] | 4.03 ± 0.16 | 4.28 ± 0.27
25 | AILMKAYQRFRQKSKASFLLLASG [PTGFR] | 3.41 ± 0.86 | 2.83 ± 0.41
26 | AKAPPTACYAGAAPAPSQVKSKAK [CEBPB] | 5.36 ± 0.19 | 5.21 ± 0.2
27 | AKQTKRMLDMKVNPIQGLASKWDY [COX4I1] | 2.93 ± 0.35 | 2.72 ± 0.34
28 | ALEFWRQEELTRINQSFTGAERKA [IQUB] | 3.87 ± 0.52 | 3.73 ± 0.43
29 | ALEQREQDAVDQVKVIMDALDERA [TRIM29] | 5.33 ± 0.097 | 5.31 ± 0.29
30 | ALGIYGAPYAAAAAAQSYPGYLPY [IRX6] | 2.23 ± 0.14 | 2.19 ± 0.27
31 | ALGKLLPRETLCTELVLSDCMLSE [LRRC45] | 2.22 ± 0.32 | 2.67 ± 0.45
32 | ALLGYEMVQVACGASHVLALSTER [NEK8] | 2.5 ± 0.88 | 2.12 ± 0.44
33 | ALLHQAETLQPSVWFGGREHVLMF [TMEM175] | 2.28 ± 0.51 | 1.95 ± 0.5
34 | ALLQAMKDLDGMDADILGLKKSNS [FBF1] | 2.83 ± 0.78 | 2.82 ± 0.29
35 | ALRVLAEQNIIPSATNVTCYYQPA [TENT5C] | 2.31 ± 0.22 | 2.2 ± 0.089
36 | ALVAPLLRLENNHCHIEESEHVLK [VPS39] | 3.26 ± 0.11 | 3.32 ± 0.2
37 | ALVCQVDNDHKEAVGKMGFVVTML [ZER1] | 2.29 ± 0.29 | 2.37 ± 0.5
38 | AMAMGTPSTTERISTSGQAGTSSH [PXN] | 4.86 ± 0.31 | 4.98 ± 0.1
39 | AMEAVRVNPLHVDSTWLLLRRIRA [SLC25A39] | 2.66 ± 0.41 | 2.81 ± 0.19
40 | ANGTVIAEFILLGLLEAPGLQPVV [OR3A1] | 3.06 ± 0.61 | 2.7 ± 0.35
41 | ANNRILAERIAKEIQVIPLQRDDE [IMPA1] | 4.17 ± 0.38 | 4.04 ± 0.068
42 | ANTMEHLSLLDNNIPGNSTLITAV [FBXO33] | 3.16 ± 0.17 | 3.25 ± 0.33
43 | APPAKLACPVCSKMVPRYDLNRHL [FAN1] | 2.39 ± 0.21 | 2.95 ± 0.55
44 | APSLSGKGNPEEEDVDTSQVLYEW [CTNNB1] | 5.14 ± 0.28 | 5.15 ± 0.18
45 | APSPGVKEQAIWKHPQPAPAVTPD [PKD2L1] | 5.15 ± 0.1 | 5.07 ± 0.13
46 | AQKLTIRLSSRYRYGQLIEINSHS [TRIP13] | 2.17 ± 0.55 | 2.01 ± 0.27

Row | Sequence | protein stability index (treatment: DMSO) | protein stability index (treatment: MLN4924 1 uM, 8 h)
47 | AQRVKEVLPHVPLGVIQRDLAKTG [AUP1] | 3.81 ± 0.42 | 3.85 ± 0.17
48 | AQSAGTQQVAAVSSVSPATPFQSV [BRD3] | 4.42 ± 0.19 | 4.37 ± 0.11
49 | AQSRLEDPGADSEKSTVVEGGEVR [DLX1] | 5.42 ± 0.28 | 5.45 ± 0.37
50 | AQTNPTPGSLGPWKITIYDQENFQ [CRYBA1] | 3.18 ± 0.41 | 3.3 ± 0.2
51 | ARQELLGDRPRWQRLLGEDKFQWL [ANKRD9] | 2.66 ± 0.46 | 2.98 ± 0.31
52 | ASFRVTTGTSNTTAIKSIEFARKG [RBBP5] | 3.91 ± 0.62 | 3.86 ± 0.23
53 | ASLLPSARLASPLPREEEIVFPEK [ADAMTS4] | 4.7 ± 0.63 | 4.97 ± 0.46
54 | ASSMLRKSQLGFLNVTNYCHLAHE [DCAF4] | 2.2 ± 0.41 | 2.42 ± 0.16
55 | ASVATWAIFVHRVGQPSIGGKLSP [CTBP1-DT] | 2.65 ± 0.9 | 2.33 ± 0.33
56 | ATDNYDIGFGVYFEWTDSPNTAVS [ACBD3] | 2.21 ± 0.16 | 2.25 ± 0.48
57 | ATGEVLGQFYLDLYPREGKYNHAA [NLN] | 2.91 ± 0.83 | 2.73 ± 0.27
58 | AVLAASSPYFHDQVLLKGMTSISL [ZBTB22] | 2.7 ± 0.32 | 2.47 ± 0.34
59 | AVLGLYLLVFLILVGIFILAVSRP [SCARA5] | 3.3 ± 0.071 | 2.58 ± 0.63
60 | AVPTDEARAFAEKNNLSFIETSAL [RAB11B] | 3.31 ± 0.31 | 3.47 ± 0.54
61 | AVSAMKCGLLPISPEALSLGEVAY [ADD1] | 2.31 ± 0.3 | 2.41 ± 0.066
62 | AYSGNTSNLSYHLEKNHPEEFCEF [ZBED1] | 3.63 ± 0.38 | 3.55 ± 0.48
63 | CASDEGEVIVFGGCANNLLVHHRA [KLHDC2] | 2.6 ± 0.35 | 2.27 ± 0.29
64 | CDYCDRSFQDNLHNRKKHLNGLQH [ZMAT5] | 3.09 ± 0.71 | 3.11 ± 0.38
65 | CERVVINVSGLRFETQMKTLAQFP [KCNA4] | 2.55 ± 0.42 | 2.51 ± 0.77
66 | CHLCNYACRRRDALTGHLRTHSVI [IKZF1] | 3.06 ± 0.26 | 3.15 ± 0.4
67 | CKKAFREGSRKSSRVKGSAPEIDP [KMT2E] | 4.46 ± 0.15 | 4.48 ± 0.15
68 | CPAELFTNTRSDLDVFGRGDNISD [LUC7L3] | 4.38 ± 0.26 | 4.65 ± 0.19
69 | CRGIPRGPVRPAIPPPLSSVYAWG [NEK8] | 2.3 ± 0.36 | 2.35 ± 0.43

Row | Sequence | protein stability index (treatment: DMSO) | protein stability index (treatment: MLN4924 1 uM, 8 h)
70 | CRLTHIPAYKVSGDKNEEQVLNAI [ZER1] | 3.5 ± 0.42 | 3.42 ± 0.3
71 | CSPSQMDLLCAQLQLPQLSDLGLL [FANCE] | 2.15 ± 0.42 | 2.13 ± 0.44
72 | CSSPSVVASLPLDQSDEGSSSQKE [MAGEA10] | 5.36 ± 0.74 | 5.49 ± 0.1
73 | CYAAMKKKIYAMGGGSYGKLFESV [GAN] | 2.16 ± 0.39 | 2.23 ± 0.45
74 | CYKGHKEIAQYLLEKGADVNRKSV [FEM1C] | 3.1 ± 0.14 | 3.38 ± 0.18
75 | DAASLRRQIIKLNRRLQLLEEENK [MFF] | 3.35 ± 0.19 | 3.68 ± 0.55
76 | DCLQLIADSETPTIQKGSYTFVPW [TNFSF13B] | 2.19 ± 0.28 | 2.2 ± 0.18
77 | DDGRLLEYDTVTREVKVLLDQLRF [APMAP] | 2.62 ± 0.2 | 3.05 ± 0.38
78 | DEEVSGSSKTITAEIPDGPPVVAH [C18orf25] | 5.35 ± 0.25 | 5.41 ± 0.22
79 | DFGSNCRFSHMSERDLQELSIQVE [ZMAT5] | 3.05 ± 0.49 | 2.91 ± 0.28
80 | DGAWCAGRNDLQQWIEVDARRLTR [CPXM2] | 3.48 ± 0.35 | 3.95 ± 0.52
81 | DGLLGDNQIMPKTGFLIIILAIIA [MAGEA6] | 2.86 ± 0.65 | 2.12 ± 0.46
82 | DGRFEKRQGNPSWKKQQKCDECGK [ZNF396] | 5.03 ± 0.2 | 5.2 ± 0.11
83 | DIKNPEITTNRFYGPQVNNISHTK [WASL] | 3.19 ± 0.26 | 3.48 ± 0.41
84 | DIYILPSDNSGQVSPPESPTVTTS [BCL2L13] | 4.58 ± 0.27 | 4.5 ± 0.15
85 | DKDKSDDRMARPSGRSGHNTRGTG [CSNK1G3] | 5.6 ± 0.29 | 5.43 ± 0.52
86 | DKLKIDLLPDGRHAVVEVEDVPLA [TAF7L] | 4.61 ± 0.15 | 4.8 ± 0.24
87 | DKPLPPPPPGSLSRTQEPSLGKQK [SOAT2] | 5.27 ± 0.28 | 5.41 ± 0.21
88 | DLDLIQSTPFKPLALKTPPRVLTL [MFF] | 2.31 ± 0.3 | 2.36 ± 0.34
89 | DLKQALPCVAESPTVHVEVHQRGS [TRIP13] | 4.51 ± 0.31 | 4.57 ± 0.11
